Data published in patent US20140328762A1, “Fluorogenic Peptide Probes and Assays” (priority 2011, published 2014).
Blank lines part the entries; values can stand above or below the binder they belong to.

What was measured:
E3 peptide [1] = target: T1, E3 peptide; experiment: CD spectra analysis, curve fitting (data not shown)
T1 chain: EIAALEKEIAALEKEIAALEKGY

[2] = target: T2, full length human XRCC4 protein (recombinant, E. coli) (human), Q13426; experiment: fluorescence of 2 µM beacon with increasing concentration of XRCC4 (FIG. 8)
T2 sequence (Q13426 whole entry, the tested form may be a part): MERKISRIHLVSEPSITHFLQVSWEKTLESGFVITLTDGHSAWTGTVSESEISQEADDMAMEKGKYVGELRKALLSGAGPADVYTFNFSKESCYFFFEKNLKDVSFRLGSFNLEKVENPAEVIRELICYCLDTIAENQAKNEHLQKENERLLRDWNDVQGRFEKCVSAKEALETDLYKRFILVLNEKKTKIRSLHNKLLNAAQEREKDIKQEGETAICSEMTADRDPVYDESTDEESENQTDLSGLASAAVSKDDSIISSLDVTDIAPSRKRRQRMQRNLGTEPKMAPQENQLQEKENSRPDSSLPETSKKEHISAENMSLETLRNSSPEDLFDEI

[3] = target: truncated XRCC4 protein that does not have DNA ligase IV binding site (recombinant, E. coli) (human), Q13426; experiment: absorbance spectra, 1 µM beacon, 40 µM protein; beacon only 0.40 (FIG. 7)
truncated XRCC4 protein that does not have DNA ligase IV binding site (recombinant, E. coli) (human), Q13426, sequence (Q13426 2-150 limits assumed): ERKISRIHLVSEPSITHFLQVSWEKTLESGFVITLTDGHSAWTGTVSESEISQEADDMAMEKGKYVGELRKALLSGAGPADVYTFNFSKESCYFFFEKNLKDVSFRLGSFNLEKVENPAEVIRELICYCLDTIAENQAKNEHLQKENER

[4] = target: T2, full length human XRCC4 protein …; experiment: as above
[5] = target: FosLZ (MBP-FosLZ, fusion protein of MBP and the cFos leucine zipper) [MBP: P0AEX9]; experiment: fluorescence at 580 nm, 100 nM beacon, 10 µM partner (FIG. 14A, column C)
[6] = target: unlabeled JunLZ-Lb1b4 [MBP: P0AEX9]; experiment: fluorescence at 580 nm, 100 nM beacon, 10 µM partner (FIG. 14A, column B)
E3 peptide [7] = target: T1, E3 peptide; experiment: fluorescence at 580 nm, 100 nM beacon, 10 µM partner (FIG. 14A, column E)
E3 peptide [8] = target: T1, E3 peptide; experiment: Kd of the beacon (fluorescence) compared with Kd of unlabeled K3-b1b3 (CD), both for E3
E3 peptide [9] = target: T1, E3 peptide; experiment: fluorescence titration of 1 µM beacon with E3 peptide
[10] = target: unlabeled GCN4 244 (yeast); experiment: fluorescence at 580 nm, 100 nM beacon, 10 µM partner (FIG. 14A, column D)
E3 peptide [11] = target: T1, E3 peptide; experiment: fluorescence titration of 10 nM beacon with E3 peptide, curve fitting
E3 peptide [12] = target: T1, E3 peptide; experiment: fluorescence titration of 1 µM beacon with E3 peptide, curve fitting

Kd (E3 peptide [1]): 45 nM
Binder: KICALKAKIAALKAKICALKAGY (modifications not checked) [K3-b1b3 peptide (unlabeled)]

fluorescence enhancement [2]: 9.5 fold | A550/A520 ratio [3]: 0.38 | A550/A520 ratio [4]: 0.46
Binder: CREYDSYGDSYFIDTDLNQLKEVFSGIKCG (modifications not checked) [LigIV-C1 peptide beacon]

fluorescence enhancement over beacon only [5]: 1.6 fold | fluorescence enhancement over beacon only [6]: 1.5 fold | fluorescence enhancement over beacon only (E3 peptide [7]): 7 fold | fold decrease of binding affinity against unlabeled K3-b1b3 (E3 peptide [8]): 17 fold | maximum fluorescence enhancement (E3 peptide [9]): 12 fold | fluorescence enhancement over beacon only [10]: 1.2 fold | Kd (E3 peptide [11]): 738 nM | Kd (E3 peptide [12]): 766 nM
Binder: KICALKAKIAALKAKICALKAGY (modifications not checked) [K3-b1b3 beacon]
